From US20120316071A1 (published 2012) come the findings set out here.

Experiment [1] deals with T1, Recombinant Human DLL4 (R&D Systems Cat#1506-D4/CF) (human, UniProt Q9NR61 27-524).
T1 construct: bought recombinant protein; also called rHuman DLL4; delta-like protein 4
Put plainly: SPR.

The target in experiment [2] is T1, Recombinant Human DLL4 (R&D Systems …). Put plainly: affinity quoted with the Multispot ECL titration; method of the number not stated there.
Experiment [3] deals with T2, rHuman Notch-1/Fc Chimera, CF (R&D Systems Cat#3647-TK) (human, UniProt P46531 19-526).
T2 construct: Bought recombinant protein; Fc part of the bought chimera not given
Put plainly: ECL multispot binding assay (MSD), antigen spotted on plate, 10 nM Fab.

The target of experiment [4] is T3, rHuman Erythropoietin R/Fc Chimera, CF (R&D Systems Cat#963-ER) (human, UniProt P19235 25-250).
T3 construct: Bought recombinant protein; also called EPO R; EPO R/Fc; Fc part of the bought chimera not given
T3 sequence (looked up): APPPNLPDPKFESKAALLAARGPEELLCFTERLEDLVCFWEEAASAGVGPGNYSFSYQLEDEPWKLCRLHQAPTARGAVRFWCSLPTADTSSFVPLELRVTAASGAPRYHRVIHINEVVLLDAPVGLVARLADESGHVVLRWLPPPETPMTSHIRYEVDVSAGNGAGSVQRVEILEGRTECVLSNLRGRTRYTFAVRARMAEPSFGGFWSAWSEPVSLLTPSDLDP
Described as above.

Experiment [5] addresses T4, rHuman HGF R/c-MET/Fc Chimera, CF (R&D Systems Cat#358-MT/CF) (human, UniProt P08581 25-932).
T4 construct: Bought recombinant protein; also called HGF R/Fc; hepatocyte growth factor receptor; Fc part of the bought chimera not given
The experiment is described as above.

Experiment [6] addresses T5, rHuman CD44/Fc Chimera, CF (R&D Systems Cat#3660-CD) (human, UniProt P16070 21-220).
T5 construct: Bought recombinant protein; Fc part of the bought chimera not given
The description is as above.

The target of experiment [7] is T6, Recombinant Human DLL4 (R&D Systems Cat#1506-D4/CF) (human, UniProt Q9NR61 27-524).
T6 construct: Bought recombinant protein; also called delta-like protein 4; rHuman DLL4
The experiment is described as above.

Experiment [8] concerns the target T7, rHuman IGF-1 sR, CF (R&D Systems Cat#391-GR) (human, UniProt P08069 31-932).
T7 construct: also called insulin-like growth factor-1 soluble receptor
The experiment is described as above.

For experiment [9], the target named is T8, rHuman ErbB2/Fc Chimera, CF (R&D Systems Cat#1129-ER) (human, UniProt P04626 23-652).
T8 construct: Bought recombinant protein; also called human epidermal growth factor 2 receptor; Fc part of the bought chimera not given
Described as above.

For experiment [10], the target named is T9, rHuman EGF R/Fc Chimera, CF (R&D Systems Cat#344-ER) (human, UniProt P00533 25-645).
T9 construct: Bought recombinant protein; also called epidermal growth factor receptor; Fc part of the bought chimera not given
The experiment is described as above.

For experiment [11], the target named is T10, rHuman P-Cadherin/Fc Chimera, CF (R&D Systems Cat#861-PC) (human, UniProt P22223 108-654).
T10 construct: Bought recombinant protein; Fc part of the bought chimera not given
Described as above.

In experiment [12] the target is T11, Recombinant Human DLL4 (R&D Systems Cat#1506-D4/CF) (human, UniProt Q9NR61 27-524).
T11 construct: Bought recombinant protein; also called delta-like protein 4; rHuman DLL4
Briefly: ECL Multispot (MSD), antigen spotted, Fab 5.00 (column head 'Fab [µM]'); blank 268.

Experiment [13] deals with T12, rHuman P-Cadherin/Fc Chimera, CF (R&D Systems Cat#861-PC) (human, UniProt P22223 108-654).
T12 construct: Bought Fc chimera; Fc part of the bought chimera not given
The experiment is described as above.

The target in experiment [14] is T13, rHuman ErbB2/Fc Chimera, CF (R&D Systems Cat#1129-ER) (human, UniProt P04626 23-652).
T13 construct: Bought Fc chimera; also called human epidermal growth factor 2 receptor; Fc part of the bought chimera not given
The experiment is described as above.

For experiment [15], the target named is T14, rHuman HGF R/c-MET/Fc Chimera, CF (R&D Systems Cat#358-MT/CF) (human, UniProt P08581 25-932).
T14 construct: Bought Fc chimera; also called HGF R/Fc; hepatocyte growth factor receptor; Fc part of the bought chimera not given
The experiment is described as above.

In experiment [16] the target is T15, rHuman IGF-1 sR, CF (R&D Systems Cat#391-GR) (human, UniProt P08069 31-932).
T15 construct: Bought soluble receptor; also called insulin-like growth factor-1 soluble receptor
The experiment is described as above.

Experiment [17] deals with T11, Recombinant Human DLL4 (R&D Systems …). Put plainly: ELISA, DLL4 coated, 100 nM Fab, absorbance at 450 nm minus noise.
Experiment [18] has the same target. Briefly: ECL Multispot (MSD), antigen spotted, Fab 500.00 (column head 'Fab [µM]'); blank 495.
The target of experiment [19] is T12, rHuman P-Cadherin/Fc Chimera, CF (R&D …). Described as above.
The target in experiment [20] is T13, rHuman ErbB2/Fc Chimera, CF (R&D …). The description is as above.
For experiment [21], the target named is T14, rHuman HGF R/c-MET/Fc Chimera, CF (R&D …). The description is as above.
Experiment [22] deals with T15, rHuman IGF-1 sR, CF (R&D Systems …). The description is as above.
The target of experiment [23] is T11, Recombinant Human DLL4 (R&D Systems …). Briefly: ECL Multispot (MSD), antigen spotted, Fab 50.00 (column head 'Fab [µM]'); blank 223.
The target in experiment [24] is T12, rHuman P-Cadherin/Fc Chimera, CF (R&D …). Described as above.
Experiment [25] deals with T13, rHuman ErbB2/Fc Chimera, CF (R&D …). Described as above.
Experiment [26] has as its target T14, rHuman HGF R/c-MET/Fc Chimera, CF (R&D …). The description is as above.
Experiment [27] has as its target T15, rHuman IGF-1 sR, CF (R&D Systems …). The experiment is described as above.
The target of experiment [28] is T11, Recombinant Human DLL4 (R&D Systems …). Briefly: ECL Multispot (MSD), antigen spotted, Fab 0.50 (column head 'Fab [µM]'); blank 206.
The target in experiment [29] is T12, rHuman P-Cadherin/Fc Chimera, CF (R&D …). Described as above.
The target in experiment [30] is T13, rHuman ErbB2/Fc Chimera, CF (R&D …). Described as above.
Experiment [31] addresses T14, rHuman HGF R/c-MET/Fc Chimera, CF (R&D …). The experiment is described as above.
Experiment [32] has as its target T15, rHuman IGF-1 sR, CF (R&D Systems …). The description is as above.
In experiment [33] the target is T11, Recombinant Human DLL4 (R&D Systems …). Put plainly: ECL Multispot (MSD), DLL4 spotted, 10 nM Fab.

Where a chain is given by its changes, count along the chain named. Names and notes keep the numbering of the source.

B1: Fab VH1-46_IGHD6-6*01_IGHJ1*01 S102A/S103P/S104F/H111F & L6_IGKJ1*01 (Fab, V domains shown)
VH: QVQLVQSGAEVKKPGASVKVSCKASGYTFTSYYMHWVRQAPGQGLEWMGIINPSGGSTSYAQKFQGRVTMTRDTSTSTVYMELSSLRSEDTAVYYCAREEYAPFSAEYFQFWGQGTLVTVSS
VL: not shown
notes: Fab; also called H:APFF & L:wt; APFF mutant
On to B1, for which the “fold affinity against the parent Fab” value in experiment [1] is 10 fold. In addition, the “apparent Kd (pooled screen)” value in [2] worked out at 70 nM.

B2: Fab VH1-46_IGHD6-6*01_IGHJ1*01 S102A/S103P/S104F/H111F S59A & L6_IGKJ1*01 (Fab, V domains shown)
VH: B1 VH with S59A
VL: not shown
notes: Tested as a Fab made in E. coli; also called APFF S59A
With B2, the ECL signal came to 333 in experiment [3]; 382 in [4]; 280 in [5]; 346 in [6]; 4500 in experiment [7]; 273 in [8]. In addition, the figures for the ECL signal in experiment [9], in experiment [10] and in [11] were 312, 358 and 339, respectively.

B3: Fab VH1-46_IGHD6-6*01_IGHJ1*01 S102A/S103P/S104F/H111F (APFF) & L6_IGKJ1*01 (Fab, V domains shown)
VH: B1 VH
VL: not shown
notes: Tested as Fab expressed in E. coli: heavy chain from plasmid A (CH1 with His6 and Flag tags), kappa light chain from plasmid C (CL kappa); also called H:APFF & L:wt
As to B3, the ECL signal in experiment [12] was determined as 75800; in experiment [13], 280; in [14] it was 286; in experiment [15], 258; in experiment [16], 323; in experiment [18], 27200. Further, the ECL signal in experiment [19] turned out to be 785; in experiment [20], 712; in [21], 723; in [22] it was 736; in experiment [23] it was 79300; in experiment [24], 453. Further, the ECL signal in experiment [25] was 503; in experiment [26], 380; in experiment [27] it was 485; in [28], 7540; in experiment [29] it was 201; in experiment [30], 222. Besides, the ECL signal came to 215 in experiment [31] and 184 in experiment [32]. The “ELISA (Signal-Noise)” value in experiment [17] stood at 0.78. For the same molecule, the “ECL Signal/Noise” value in [33] was 202.
